Test results from patent publication US20210371503A1.

Target: prefusion stabilized SARS-CoV-2 S ectodomain (SARS-CoV-2) (UniProt P0DTC2)
Test: assay not stated; row Binding Affinity Spike Trimer, construct not given

REGN10933 (antibody) showed a Kd of 3 nM.
